Experimental data published in patent publication US9364516B2, “Treatment of fibrosis-related disorders using fibronectin binding proteins and polypeptides” (priority 2010, dated 2016).

Columns and labels:
fibronectin = fibronectin (Homo sapiens, UniProt P02751); conditions: cited from earlier work
Mouse carotid arteries = experiment: qRT-PCR of fibronectin and collagen I in carotid arteries after ligation; format: in vivo; conditions: III-11C set equal to 1, mean ± s.e.m., 3 arteries
Protocol: mRNA was isolated from RASMs 24 hours after incubation with 500 nM pUR4 or III-11C control peptides using RNAzol as per the manufacturer's instructions (Invitrogen). cDNA was prepared using a Superscript First Strand cDNA kit as per the manufacturer's instructions (Invitrogen). Mouse carotid arteries were harvested and frozen in liquid nitrogen. RNA was isolated using Trizol and purified using a QIAgen RNeasy Micro Kit. RNA integrity was examined with an Agilent 2100 Bioanalyser using RNA6000 NanoAssay (Agilent Technology). Whole transcriptome amplification was performed using Qiagen's QuantiTect Whole Transcriptome Amplification Kit. Quantitative RT-PCR analyses were performed using ABI Prism 7900HT sequence detection system (Applied Biosystems). The qRT-PCR primers for 3 mouse genes were obtained from ABI: GADPH (4352932E), fibronectin (Mm01256744_m1), and collagen Ia1 (Mm00801666_g1). TaqMan probe chemistry was used according to the manufacturer's instructions. qRT-PCR reactions were run in triplicate for each sample. The data was normalized to the levels of GAPDH in each sample, and the results were averaged.
Blood flow in the left carotid artery of 10-week-old FVB/NJ (FVB) mice was reduced by ligating the external and internal carotid arterial branches as described (Korshunov et al., “Flow-Induced Vascular Remodeling in the Mouse: A Model for Carotid Intima-Media Thickening,” Arterioscler. Thromb. Vasc. Biol. 23:2185-2191 (2003), which is hereby incorporated by reference in its entirety). Mice were anesthetized with an intraperitoneal injection of ketamine (80 mg/kg) and xylazine (5 mg/kg) as described in the above-cited referenced. The left common carotid artery was dissected free of the surrounding connective tissue and 50 μL of F-127 pluronic gel (BASF) containing 20 μmol/L pUR4 or III-11C was applied around the carotid artery. Animals were separated into 5 groups containing 5 to 10 animals each: (1) sham-operated, in which the branches of the left carotid artery were exposed and dissected out, but not ligated; (2) ligation; (3) ligation with pluronic gel; (4) ligation with pluronic gel containing III-11C; (5) ligation with pluronic gel containing pUR4.

Chain of fibronectin (P02751 32-2477): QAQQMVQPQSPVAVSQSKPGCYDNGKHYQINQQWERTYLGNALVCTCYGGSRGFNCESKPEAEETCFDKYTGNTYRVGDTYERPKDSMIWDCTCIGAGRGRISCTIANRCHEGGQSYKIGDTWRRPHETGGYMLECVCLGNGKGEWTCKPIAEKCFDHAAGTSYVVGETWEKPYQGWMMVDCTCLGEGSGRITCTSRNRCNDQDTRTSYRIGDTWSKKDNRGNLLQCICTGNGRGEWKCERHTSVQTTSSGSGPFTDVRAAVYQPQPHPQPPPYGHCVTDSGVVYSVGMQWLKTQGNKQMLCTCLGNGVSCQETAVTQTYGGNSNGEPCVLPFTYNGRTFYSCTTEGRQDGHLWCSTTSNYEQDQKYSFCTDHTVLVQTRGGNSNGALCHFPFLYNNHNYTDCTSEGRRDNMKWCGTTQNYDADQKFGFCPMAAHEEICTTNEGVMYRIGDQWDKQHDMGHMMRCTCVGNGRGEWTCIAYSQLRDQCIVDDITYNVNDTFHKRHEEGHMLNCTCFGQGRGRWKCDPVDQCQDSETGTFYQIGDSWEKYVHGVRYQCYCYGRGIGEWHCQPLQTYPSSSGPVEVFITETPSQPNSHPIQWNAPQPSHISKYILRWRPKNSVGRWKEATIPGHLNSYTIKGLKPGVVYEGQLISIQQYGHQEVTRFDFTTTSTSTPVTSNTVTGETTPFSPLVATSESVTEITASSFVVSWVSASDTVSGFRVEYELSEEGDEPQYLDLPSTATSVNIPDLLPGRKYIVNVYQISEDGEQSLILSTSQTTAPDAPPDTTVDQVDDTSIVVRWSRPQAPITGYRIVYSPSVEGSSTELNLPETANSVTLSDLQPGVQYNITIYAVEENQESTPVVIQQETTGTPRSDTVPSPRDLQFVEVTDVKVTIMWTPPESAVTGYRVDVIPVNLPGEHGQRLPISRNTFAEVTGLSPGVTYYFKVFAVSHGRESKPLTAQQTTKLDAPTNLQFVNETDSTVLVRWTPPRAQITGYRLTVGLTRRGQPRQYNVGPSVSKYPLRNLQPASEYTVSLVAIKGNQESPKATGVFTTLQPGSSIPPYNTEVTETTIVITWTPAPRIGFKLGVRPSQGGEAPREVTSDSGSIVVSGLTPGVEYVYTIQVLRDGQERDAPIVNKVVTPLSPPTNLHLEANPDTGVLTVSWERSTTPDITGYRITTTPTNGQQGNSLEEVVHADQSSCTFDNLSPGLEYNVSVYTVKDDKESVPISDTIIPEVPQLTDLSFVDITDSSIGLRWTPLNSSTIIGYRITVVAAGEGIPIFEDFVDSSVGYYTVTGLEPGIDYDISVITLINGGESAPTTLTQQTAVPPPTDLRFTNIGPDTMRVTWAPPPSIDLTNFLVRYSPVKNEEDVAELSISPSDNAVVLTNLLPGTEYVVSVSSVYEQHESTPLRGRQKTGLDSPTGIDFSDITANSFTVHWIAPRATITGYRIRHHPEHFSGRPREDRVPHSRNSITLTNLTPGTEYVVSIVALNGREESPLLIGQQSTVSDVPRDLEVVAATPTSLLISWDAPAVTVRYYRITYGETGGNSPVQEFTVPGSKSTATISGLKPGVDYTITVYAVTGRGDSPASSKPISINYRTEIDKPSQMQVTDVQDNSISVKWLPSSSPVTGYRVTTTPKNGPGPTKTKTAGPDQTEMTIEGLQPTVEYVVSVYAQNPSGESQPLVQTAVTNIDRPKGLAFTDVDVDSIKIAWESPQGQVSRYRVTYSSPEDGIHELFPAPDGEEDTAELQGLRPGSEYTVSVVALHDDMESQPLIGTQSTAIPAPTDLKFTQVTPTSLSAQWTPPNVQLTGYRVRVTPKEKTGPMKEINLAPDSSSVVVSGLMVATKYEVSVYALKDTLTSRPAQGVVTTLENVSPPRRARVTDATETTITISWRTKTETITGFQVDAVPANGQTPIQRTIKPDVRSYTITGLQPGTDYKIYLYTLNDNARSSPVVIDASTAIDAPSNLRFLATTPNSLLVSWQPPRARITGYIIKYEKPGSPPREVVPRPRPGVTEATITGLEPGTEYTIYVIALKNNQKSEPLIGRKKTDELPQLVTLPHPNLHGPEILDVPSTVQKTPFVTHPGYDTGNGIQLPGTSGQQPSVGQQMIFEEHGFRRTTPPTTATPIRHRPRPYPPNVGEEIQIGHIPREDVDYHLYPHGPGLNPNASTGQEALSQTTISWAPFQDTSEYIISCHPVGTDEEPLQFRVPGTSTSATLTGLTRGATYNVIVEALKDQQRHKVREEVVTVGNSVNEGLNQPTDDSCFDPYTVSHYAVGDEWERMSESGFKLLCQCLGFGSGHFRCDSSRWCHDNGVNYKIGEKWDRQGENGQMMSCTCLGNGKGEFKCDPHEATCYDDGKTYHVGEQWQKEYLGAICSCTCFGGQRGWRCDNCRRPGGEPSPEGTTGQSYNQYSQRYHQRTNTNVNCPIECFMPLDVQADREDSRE

B1: pUR4: 49-mer peptide derived from the bacterial F1 adhesin, His tagged, SEQ ID NO:1; class I fibronectin polymerization inhibitor (peptide)
chain: MRGSHHHHHHGSKDQSPLAGESGETEYITEVYGNQQNPVDIDKKLPNETGFSGNMVETEDTKLN
modifications: His tag; Bacterial adhesin derived peptide pUR4
In the case of B1, the binding to fibronectin (fibronectin) is listed as “binds”, the “Col Ia1 mRNA, relative level, Day 4” value (Mouse carotid arteries; 4 days post surgery) is listed as 0.60 ± 0.30 and the “Fibronectin mRNA, relative level, Day 4” value (Mouse carotid arteries; 4 days post surgery) is listed as 0.70 ± 0.23. For the same molecule, the “Col Ia1 mRNA, relative level, Day 7” value (Mouse carotid arteries; 7 days post surgery) was 0.58 ± 0.36 and the “Fibronectin mRNA, relative level, Day 7” value (Mouse carotid arteries; 7 days post surgery) was 0.41 ± 0.23.
